According to patent EP4559472A1 (Universität Ulm, dated 2025):

Biological target: T1, Biotinylated C4d (UniProt P0C0L4 957-1336, limits assumed, biotinylated (thioester moiety; NHS-PEG4-Biotin Kit))
T1 construct: domain: C4d; also called C4d (biotinylated, on streptavidin sensor chip)
T1 sequence (looked up): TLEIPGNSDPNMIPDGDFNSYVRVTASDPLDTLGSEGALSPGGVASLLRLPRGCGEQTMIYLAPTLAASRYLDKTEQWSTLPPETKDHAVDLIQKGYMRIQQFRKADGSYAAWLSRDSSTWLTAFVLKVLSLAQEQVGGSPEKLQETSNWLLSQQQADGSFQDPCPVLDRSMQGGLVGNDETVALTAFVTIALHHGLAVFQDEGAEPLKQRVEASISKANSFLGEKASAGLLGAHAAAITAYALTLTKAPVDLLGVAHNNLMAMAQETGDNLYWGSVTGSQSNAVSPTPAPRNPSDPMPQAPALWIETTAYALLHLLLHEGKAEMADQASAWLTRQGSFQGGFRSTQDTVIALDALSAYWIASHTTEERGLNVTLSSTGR
Assay: SPR, biotinylated C4d on streptavidin chip

binding result: no binding
B1: FH(15-18) (other, human, UniProt P08603 868-1104, looked up)
chain: IPCSQPPQIEHGTINSSRSSQESYAHGTKLSYTCEGGFRISEENETTCYMGKWSSPPQCEGLPCKSPPEISHGVVAHMSDSYQYGEEVTYKCFEGFGIDGPAIAKCLGEKWSHPPSCIKTDCLSLPSFENAIPMGEKKDVYKAGEQVTYTCATYYKMDGASNVTCINSRWTGRPTCRDTSCVNPPTVQNAYIVSRQMSKYPSGERVRYQCRSPYEMFGDEEVMCLNGNWTEPPQCKD
notes: domain: protein domains 15-18; Control protein; also called protein domains 15-18 of FH
